Data as given in paper doi:10.1101/2024.04.20.590211.
“And” between values parts separate entries of the source, which are not always exact repeats. Equal values may be shown once.

Legend:
[1] = target: FluPolA/H7N9-WT, wild-type influenza A/Zhejiang/DTID-ZJU01/2013(H7N9) polymerase heterotrimer (influenza A virus A/Zhejiang/DTID-ZJU01/2013(H7N9)) (UniProt M9TI86); test: SEC
[2] = target: FluPolB, influenza B/Memphis/2003 polymerase heterotrimer (wild type) (influenza B virus B/Memphis/2003) (UniProt Q5V8Z9); test: mass photometry

Substance	stoichiometry N [1]	fraction of dimers [2]	stoichiometry N [2]
FluPolA/H7N9-WT, wild-type influenza A/Zhejiang/DTID-ZJU01/2013(H7N9) polymerase heterotrimer (from UniProt M9TI86;M9TLW3;X5F427) (complex)	2	–	–
FluPolB, influenza B/Memphis/2003 polymerase heterotrimer (wild type) (from UniProt Q5V8Z9;Q5V8Y6;Q5V8X3) (complex)	–	7% and 15%	2
